Our source for the Kd values is paper doi:10.1101/2025.02.17.638454, “Synergistic RAS-MAPK and AKT Activation in MYC-Driven Tumors via Adjacent PVT1 Rearrangements” (bioRxiv, 2025).

This test concerns the target T1, Recombinant KRAS protein (#ab156968, Abcam) (UniProt P01116 1-189).
T1 construct: KRAS, recombinant protein bought from Abcam; source: bought: Abcam (#ab156968), dialyzed into ITC buffer
Briefly: ITC; twenty 6 ul injections (150 s intervals) of 500 uM HNB into the cell with 93 uM KRAS; 20 mM Tris pH 8.0, 100 mM NaCl, 5 mM beta-mercaptoethanol; 25 C; Affinity ITC (TA Instruments). Particulars: both partners purified. In general terms: Isothermal titration calorimetry measures the heat released or taken up as one component is titrated into another.

T1 sequence (P01116 whole entry): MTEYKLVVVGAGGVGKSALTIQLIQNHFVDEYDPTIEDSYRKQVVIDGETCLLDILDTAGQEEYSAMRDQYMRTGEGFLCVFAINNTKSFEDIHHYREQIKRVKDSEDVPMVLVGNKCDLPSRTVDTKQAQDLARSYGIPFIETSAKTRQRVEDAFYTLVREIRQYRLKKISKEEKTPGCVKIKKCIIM

For MKTQLGAVKGFLHV [Honeybadger (HNB) peptide used for ITC], the dissociation constant Kd – broadly, the equilibrium constant for the complex coming apart – came out at 364 ± 2 µM.
